Reference: patent US10801027B2, “Inhibitors of SRSF1 to treat neurodegenerative disorders” (University of Sheffield, priority 2016, dated 2020)

Assays:
C4G2×5 repeat RNA = assay: Protein:RNA UV crosslinking assay, antisense probe; type: binding; settings: purified recombinant hexa-histidine-tagged protein
Protocol: Recombinant proteins expressed in 1.51 of E. coli BL21 (DE3)-RP (Novagen) cell cultures were purified by IMAC chromatography on TALON/Cobalt beads (Clontech) in 1M NaCl containing buffers to prevent the potential co-purification of E. coli RNA (Lysis buffer: 50 mM TRIS-HCl pH8.0, 1M NaCl, 0.5% Triton X-100; Wash buffer: 50 mM TRIS-HCl pH8.0, 1M NaCl, 0.5% Triton X-100, 5 mM imidazole). […] Binding reactions were resolved on SDS-PAGE prior to analysis by Coomassie staining and Phosphoimaging.

NXF1 = target: T1, NXF1 (Mus musculus, UniProt Q99JX7); assay: Anti-FLAG co-immunoprecipitation of endogenous NXF1 in N2A cells; type: binding; settings: FLAG-tagged protein, 48 h
T1 construct: endogenous in cells; host or cells: Neuro-2a (N2A)
T1 sequence (Q99JX7 1-618): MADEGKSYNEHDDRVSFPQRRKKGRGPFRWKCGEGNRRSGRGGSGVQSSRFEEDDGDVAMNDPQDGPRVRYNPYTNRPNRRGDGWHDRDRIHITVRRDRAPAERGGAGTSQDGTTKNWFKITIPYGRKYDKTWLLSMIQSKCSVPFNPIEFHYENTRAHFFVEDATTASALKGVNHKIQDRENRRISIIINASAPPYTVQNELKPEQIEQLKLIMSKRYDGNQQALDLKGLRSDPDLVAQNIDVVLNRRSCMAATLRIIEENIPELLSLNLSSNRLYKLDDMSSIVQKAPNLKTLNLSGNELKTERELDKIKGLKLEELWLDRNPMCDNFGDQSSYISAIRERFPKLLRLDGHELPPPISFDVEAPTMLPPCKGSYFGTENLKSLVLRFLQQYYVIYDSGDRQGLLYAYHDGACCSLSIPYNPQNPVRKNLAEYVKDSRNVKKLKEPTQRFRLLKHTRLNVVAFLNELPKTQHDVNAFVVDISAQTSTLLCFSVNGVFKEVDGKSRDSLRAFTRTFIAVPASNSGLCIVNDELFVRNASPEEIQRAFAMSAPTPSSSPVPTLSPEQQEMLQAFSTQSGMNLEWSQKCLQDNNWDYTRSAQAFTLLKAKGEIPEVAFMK
Protocol: Cells were split into 1×10 cm plates/treatment (1.5×10^6 cells/plate) and transfected with 15 μg p3×FLAG, p3×FLAG/SRSF1 (11-196), p3×FLAG/SRSF1 (11-196)-m2 or p3×FLAG/SRSF1(11-196)-m4 using 3 μg PEI/1 μg DNA and one tenth medium volume OptiMEM.
Proteins were extracted from Neuro-2a cells 48 hours after transfection. Cells were briefly washed in ice cold PBS, scraped into 500 μl ice cold lysis buffer, passed through a 21G gauge needle 10 times and left to lyse on ice for 10 minutes. Lysed cells were cleared by centrifugation at maximum speed at 4° C. for five minutes and protein extracts were quantified using Bradford Reagent. 2 mg of total protein in 1 ml lysis buffer was incubated with 30 μl anti-FLAG® M2 affinity resin slurry (Sigma A2220) (which had been blocked overnight with 1% BSA in IP lysis buffer) for 2 hours at 4° C. on a rotating wheel. […] 30 μg total protein and 15 μl captured protein complexes were resolved by SDS-PAGE, electroblotted onto nitrocellulose membrane and probed using FLAG, NXF1 clone 53H8 [1:2000] (Abcam ab50609) and […]-tubulin.

G4C2×38 transcripts = assay: Cytoplasmic fractionation and qRT-PCR of G4C2×38 transcripts in N2A cells; type: cell-based, mouse
Protocol: Neuro-2a cells were split into each well of 6 well plates (2×10^6 cells/well) and transfected for 72 hours with 1 μg pcDNA6.2-GW/EmGFP-Control miR RNAi, pcDNA6.2-GW/EmGFP-mouse SRSF1 miR1+2 RNAi, p3×FLAG/SRSF1 (11-196), or p3×FLAG/SRSF1 (11-196)-m4 and 1 μg pcDNA 3.1/RAN-G4C2×38-sense or RAN-C4G2×39-antisense using 3 μg PEI/1 μg DNA and one tenth medium volume OptiMEM. iNeurons were cultured in 6-well plates and transduced with 5MOI human LV-SRSF1-RNAi lentivirus for 5 days.
Cytoplasmic fractionation was performed as follows. Cells were removed from the plate using DEPC PBS and pelleted by centrifugation at 800×g for 5 minutes. Cell pellets were quickly washed with hypotonic lysis buffer (10 mM HEPES pH 7.9, 1.5 mM MgCl2, 10 mM KCl, 0.5 mM DTT). Cell pellets were then lysed in hypotonic lysis buffer containing 0.16 U/μL Ribosafe RNase inhibitors (Bioline), 2 mM PMSF (Sigma) and […]™ Protease Inhibitor Cocktail tablets, EDTA free (Sigma) according to manufacturer's instructions. Cells were lysed gently using a cut P1000 tip ensuring no physical force was exerted on the cell pellet. For fly tissue, da-GAL4 was used to drive transgene expression in all tissues, and 10 third instar larvae were homogenised and lysed using the same buffer and a dounce homogenizer. The lysate then underwent differential centrifugation (1,500 g, 3 min, 4° C. then 3,500 g […], 8 min, 4° C. and then 17,000 g, 1 min, 4° C.) transferring the supernatant to a fresh tube after each centrifugation. The supernatant was then added to PureZOL (Biorad) to extract RNA. […]
Following RNA quantification, 2 μg RNA was converted to cDNA using BioScript™ Reverse Transcriptase (Bioline). qRT-PCR primers were designed using Primer-BLAST (NCBI) and validated using a 1 in 4 serial template dilution series (standard curve with R^2>0.97). qRT-PCR reactions were performed in duplicate for 3 independent biological repeats using the Brilliant III Ultra-Fast SYBR® Green QPCR Master Mix (Agilent Technologies) on a MX3000P QPCR system (Statagene). qRT-PCR data was analysed using MxPro (Stratagene) and GraphPad Prism (Version 6). […]

B1: SRSF1-m4: quadruple SRSF1 point mutant aa11-196, dominant negative, does not interact with TAP/NXF1 (protein)
chain: AGNNDCRIYVGNLPPDIRTKDIEDVFYKYGAIRDIDLKNRRGGPPFAFVEFEDPRDAEDAVYGRDGYDYDGYRLRVEFPASGAGTGRGGGGGGGGGAPRGRYGPPSAASENRVVVSGLPPSGSWQDLKDHMREAGDVCYADVYRDGTGVVEFVRKEDMTYAVRKLDNTKFRSHEGETAYIRVKVDG
modifications: left off: small tags and cut ends
direct interaction with antisense C4G2×5 repeat RNA (C4G2×5 repeat RNA): retains the ability to directly interact
co-immunoprecipitation of endogenous NXF1 (NXF1): severely impaired
cytoplasmic repeat transcript levels normalized to total levels (G4C2×38 transcripts; G4C2×38, RNAi vs Ctrl-RNAi, SRSF1-m4 vs SRSF1): marked reduction
cytoplasmic levels of G4C2×38 transcripts (G4C2×38 transcripts; normalized to U1 snRNA): markedly reduced
total levels of G4C2×38 transcripts (G4C2×38 transcripts; normalized to U1 snRNA): not significantly altered
